Source: article PMC9844003

Columns and labels:
[1] = target: extracellular domain of CD47 fused to a His(×6)-Avi-tag (human); assay: ELISA; pH 6.2
[2] = target: extracellular domain of CD47 fused to a His(×6)-Avi-tag (human); assay: ELISA; pH 6.4
[3] = target: extracellular domain of CD47 fused to a His(×6)-Avi-tag (human); assay: ELISA; pH 6.6
[4] = target: extracellular domain of CD47 fused to a His(×6)-Avi-tag (human); assay: ELISA; pH 6.8
[5] = target: extracellular domain of CD47 fused to a His(×6)-Avi-tag (human); assay: ELISA; pH 7.0
[6] = target: extracellular domain of CD47 fused to a His(×6)-Avi-tag (human); assay: ELISA; pH 7.2
[7] = target: extracellular domain of CD47 fused to a His(×6)-Avi-tag (human); assay: ELISA; pH 7.4
[8] = target: extracellular domain of CD47 fused to a His(×6)-Avi-tag (human); assay: ELISA; pH 7.6

Chain of extracellular domain of CD47 fused to a His(×6)-Avi-tag (human) (Q08722 19-141): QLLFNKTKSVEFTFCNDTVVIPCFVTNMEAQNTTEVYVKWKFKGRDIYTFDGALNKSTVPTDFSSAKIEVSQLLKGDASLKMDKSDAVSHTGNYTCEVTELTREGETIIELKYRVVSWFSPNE

## Hu5F9
[1]
  EC50: 0.04 nM
[2]
  EC50: 0.04 nM
[3]
  EC50: 0.04 nM
[4]
  EC50: 0.03 nM
[5]
  EC50: 0.04 nM
[6]
  EC50: 0.03 nM
[7]
  EC50: 0.04 nM
[8]
  EC50: 0.04 nM
